Experimental data: US20200115430A1 (I2O THERAPEUTICS, published 2020)
Starred links: 1 amine or outer side, 2 acyl side, 3 side chain; linkers in the order of their positions; H or OH if unused. Positions of bridges follow the written chain, without caps; N, C: chain ends. Groups on a side chain read outwards from the residue. No end group written: not given here. *: point of attachment. C20 diacid = O=C(O)CCCCCCCCCCCCCCCCCCC(=O)*; C18 diacid = O=C(O)CCCCCCCCCCCCCCCCC(=O)*; γGlu = O=C(O)[C@H](CCC(=O)[*:2])N[*:1]

Tests used:
human amylin 3 receptor = target: T1, human amylin 3 receptor (human, UniProt P30988 25-474; O60896 24-148); assay: cell-based or functional assay
T1 sequence (looked up) 1: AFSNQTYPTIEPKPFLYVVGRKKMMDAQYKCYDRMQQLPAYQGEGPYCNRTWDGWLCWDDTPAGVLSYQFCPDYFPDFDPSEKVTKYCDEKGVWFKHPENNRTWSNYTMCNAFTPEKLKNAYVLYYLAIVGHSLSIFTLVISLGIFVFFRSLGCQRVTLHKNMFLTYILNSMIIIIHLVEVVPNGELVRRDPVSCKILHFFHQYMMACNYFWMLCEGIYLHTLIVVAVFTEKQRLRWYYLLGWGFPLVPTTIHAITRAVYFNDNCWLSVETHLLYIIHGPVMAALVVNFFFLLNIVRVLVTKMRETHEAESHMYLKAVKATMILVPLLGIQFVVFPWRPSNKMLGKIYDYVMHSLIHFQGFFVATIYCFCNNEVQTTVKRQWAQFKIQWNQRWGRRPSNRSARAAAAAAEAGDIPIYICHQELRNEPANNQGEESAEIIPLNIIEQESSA
T1 sequence (looked up) 2: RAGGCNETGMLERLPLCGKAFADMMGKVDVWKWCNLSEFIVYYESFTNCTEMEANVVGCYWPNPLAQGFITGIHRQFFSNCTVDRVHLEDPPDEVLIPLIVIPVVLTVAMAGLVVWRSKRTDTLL

[1] = target: T2, human calcitonin receptor (human, UniProt P30988 25-474); assay: cell-based or functional assay
T2 sequence (looked up): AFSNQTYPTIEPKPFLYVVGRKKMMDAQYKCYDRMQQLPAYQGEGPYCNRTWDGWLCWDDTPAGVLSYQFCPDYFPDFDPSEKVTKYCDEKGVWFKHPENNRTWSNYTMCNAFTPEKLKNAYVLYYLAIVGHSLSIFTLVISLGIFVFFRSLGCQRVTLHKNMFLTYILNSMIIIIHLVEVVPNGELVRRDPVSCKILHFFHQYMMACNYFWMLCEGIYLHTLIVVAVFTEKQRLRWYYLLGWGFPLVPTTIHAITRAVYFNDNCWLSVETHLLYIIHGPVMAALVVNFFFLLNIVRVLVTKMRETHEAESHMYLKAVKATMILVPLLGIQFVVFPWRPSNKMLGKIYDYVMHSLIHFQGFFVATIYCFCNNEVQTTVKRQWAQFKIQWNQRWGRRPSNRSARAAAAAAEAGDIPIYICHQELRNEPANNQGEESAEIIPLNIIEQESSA

Row | Binder | pEC50 (cAMP accumulation), 0% HSA (human amylin 3 receptor) [pEC50] | pEC50 (cAMP accumulation), 0.1% HSA (human amylin 3 receptor) [pEC50] | pEC50 (cAMP accumulation), 4% HSA (human amylin 3 receptor) [pEC50] | pEC50 (cAMP accumulation), 0% HSA [1] [pEC50] | pEC50 (cAMP accumulation), 0.1% HSA [1] [pEC50] | pEC50 (cAMP accumulation), 4% HSA [1] [pEC50]
1 | KCNTATCATQRLANFLVHSSNNFGPILPPTNVGSNTY-NH2 (disulfide 2-7; ends not checked) [Pramlintide] | 12.5 | 12.6 | 12.5 | 11.4 | 11.2 | 11.1
2 | SCNTSTCATQRLANEK([γGlu-C18 diacid])HKSSNNFGPILPPTKVGSETY-NH2 (disulfide 2-7; N-terminus assumed; SMILES CC[C@H](C)[C@H](NC(=O)[C@@H]1CCCN1C(=O)CNC(=O)[C@H](Cc1ccccc1)NC(=O)[C@H](CC(N)=O)NC(=O)[C@H](CC(N)=O)NC(=O)[C@H](CO)NC(=O)[C@H](CO)NC(=O)[C@H](CCCCN)NC(=O)[C@H](Cc1c[nH]cn1)NC(=O)[C@H](CCCCNC(=O)CC[C@H](NC(=O)CCCCCCCCCCCCCCCCC(=O)O)C(=O)O)NC(=O)[C@H](CCC(=O)O)NC(=O)[C@H](CC(N)=O)NC(=O)[C@H](C)NC(=O)[C@H](CC(C)C)NC(=O)[C@H](CCCNC(=N)N)NC(=O)[C@H](CCC(N)=O)NC(=O)[C@@H](NC(=O)[C@H](C)NC(=O)[C@@H]1CSSC[C@H](NC(=O)[C@@H](N)CO)C(=O)N[C@@H](CC(N)=O)C(=O)N[C@@H]([C@@H](C)O)C(=O)N[C@@H](CO)C(=O)N[C@@H]([C@@H](C)O)C(=O)N1)[C@@H](C)O)C(=O)N[C@@H](CC(C)C)C(=O)N1CCC[C@H]1C(=O)N1CCC[C@H]1C(=O)N[C@H](C(=O)N[C@@H](CCCCN)C(=O)N[C@H](C(=O)NCC(=O)N[C@@H](CO)C(=O)N[C@@H](CCC(=O)O)C(=O)N[C@H](C(=O)N[C@@H](Cc1ccc(O)cc1)C(N)=O)[C@@H](C)O)C(C)C)[C@@H](C)O) [Compound A76] | 11.7 | 10.5 | 8.7 | 10.5 | 9.4 | 8.1
3 | SCNTSTCATQRLANEK([γGlu-C20 diacid])HKSSNNFGPILPPTKVGSETY-NH2 (disulfide 2-7; N-terminus assumed; SMILES CC[C@H](C)[C@H](NC(=O)[C@@H]1CCCN1C(=O)CNC(=O)[C@H](Cc1ccccc1)NC(=O)[C@H](CC(N)=O)NC(=O)[C@H](CC(N)=O)NC(=O)[C@H](CO)NC(=O)[C@H](CO)NC(=O)[C@H](CCCCN)NC(=O)[C@H](Cc1c[nH]cn1)NC(=O)[C@H](CCCCNC(=O)CC[C@H](NC(=O)CCCCCCCCCCCCCCCCCCC(=O)O)C(=O)O)NC(=O)[C@H](CCC(=O)O)NC(=O)[C@H](CC(N)=O)NC(=O)[C@H](C)NC(=O)[C@H](CC(C)C)NC(=O)[C@H](CCCNC(=N)N)NC(=O)[C@H](CCC(N)=O)NC(=O)[C@@H](NC(=O)[C@H](C)NC(=O)[C@@H]1CSSC[C@H](NC(=O)[C@@H](N)CO)C(=O)N[C@@H](CC(N)=O)C(=O)N[C@@H]([C@@H](C)O)C(=O)N[C@@H](CO)C(=O)N[C@@H]([C@@H](C)O)C(=O)N1)[C@@H](C)O)C(=O)N[C@@H](CC(C)C)C(=O)N1CCC[C@H]1C(=O)N1CCC[C@H]1C(=O)N[C@H](C(=O)N[C@@H](CCCCN)C(=O)N[C@H](C(=O)NCC(=O)N[C@@H](CO)C(=O)N[C@@H](CCC(=O)O)C(=O)N[C@H](C(=O)N[C@@H](Cc1ccc(O)cc1)C(N)=O)[C@@H](C)O)C(C)C)[C@@H](C)O) [Compound A73] | 12.1 | 10.6 | 8.8 | 11.3 | 9.6 | 7.9
4 | K([γGlu-γGlu-C20 diacid])CNTSTCATSRLANFLQKSSNNFGPILPPTKVGSETY-NH2 (disulfide 2-7; N-terminus assumed; SMILES CC[C@H](C)[C@H](NC(=O)[C@@H]1CCCN1C(=O)CNC(=O)[C@H](Cc1ccccc1)NC(=O)[C@H](CC(N)=O)NC(=O)[C@H](CC(N)=O)NC(=O)[C@H](CO)NC(=O)[C@H](CO)NC(=O)[C@H](CCCCN)NC(=O)[C@H](CCC(N)=O)NC(=O)[C@H](CC(C)C)NC(=O)[C@H](Cc1ccccc1)NC(=O)[C@H](CC(N)=O)NC(=O)[C@H](C)NC(=O)[C@H](CC(C)C)NC(=O)[C@H](CCCNC(=N)N)NC(=O)[C@H](CO)NC(=O)[C@@H](NC(=O)[C@H](C)NC(=O)[C@@H]1CSSC[C@H](NC(=O)[C@@H](N)CCCCNC(=O)CC[C@H](NC(=O)CC[C@H](NC(=O)CCCCCCCCCCCCCCCCCCC(=O)O)C(=O)O)C(=O)O)C(=O)N[C@@H](CC(N)=O)C(=O)N[C@@H]([C@@H](C)O)C(=O)N[C@@H](CO)C(=O)N[C@@H]([C@@H](C)O)C(=O)N1)[C@@H](C)O)C(=O)N[C@@H](CC(C)C)C(=O)N1CCC[C@H]1C(=O)N1CCC[C@H]1C(=O)N[C@H](C(=O)N[C@@H](CCCCN)C(=O)N[C@H](C(=O)NCC(=O)N[C@@H](CO)C(=O)N[C@@H](CCC(=O)O)C(=O)N[C@H](C(=O)N[C@@H](Cc1ccc(O)cc1)C(N)=O)[C@@H](C)O)C(C)C)[C@@H](C)O) [Compound A114] | 12.2 | 10.7 | 9.5 | 11.7 | 10.4 | 8.8
5 | K(C18 diacid)CNTSTCATSRLANFLQKSSNNFGPILPPTKVGSETY-NH2 (disulfide 2-7; N-terminus assumed; SMILES CC[C@H](C)[C@H](NC(=O)[C@@H]1CCCN1C(=O)CNC(=O)[C@H](Cc1ccccc1)NC(=O)[C@H](CC(N)=O)NC(=O)[C@H](CC(N)=O)NC(=O)[C@H](CO)NC(=O)[C@H](CO)NC(=O)[C@H](CCCCN)NC(=O)[C@H](CCC(N)=O)NC(=O)[C@H](CC(C)C)NC(=O)[C@H](Cc1ccccc1)NC(=O)[C@H](CC(N)=O)NC(=O)[C@H](C)NC(=O)[C@H](CC(C)C)NC(=O)[C@H](CCCNC(=N)N)NC(=O)[C@H](CO)NC(=O)[C@@H](NC(=O)[C@H](C)NC(=O)[C@@H]1CSSC[C@H](NC(=O)[C@@H](N)CCCCNC(=O)CCCCCCCCCCCCCCCCC(=O)O)C(=O)N[C@@H](CC(N)=O)C(=O)N[C@@H]([C@@H](C)O)C(=O)N[C@@H](CO)C(=O)N[C@@H]([C@@H](C)O)C(=O)N1)[C@@H](C)O)C(=O)N[C@@H](CC(C)C)C(=O)N1CCC[C@H]1C(=O)N1CCC[C@H]1C(=O)N[C@H](C(=O)N[C@@H](CCCCN)C(=O)N[C@H](C(=O)NCC(=O)N[C@@H](CO)C(=O)N[C@@H](CCC(=O)O)C(=O)N[C@H](C(=O)N[C@@H](Cc1ccc(O)cc1)C(N)=O)[C@@H](C)O)C(C)C)[C@@H](C)O) [Compound A55] | 12.2 | 11.2 | 9.6 | 11.3 | 10.2 | 8.8
